Measured values published in paper PMC3065461, “A Transient Homotypic Interaction Model for the Influenza A Virus NS1 Protein Effector Domain” (PLoS ONE, 2011).

Target: the molecule itself
Assay: SEC; gel filtration of the purified EDs; data not shown

B1: PR8 NS1 effector domain (ED), wild type, residues 73-230 (domain or fragment)
chain: SDEALKMTMASVPASRYLTDMTLEEMSRDWSMLIPKQKVAGPLCIRMDQAIMDKNIILKANFSVIFDRLETLILLRAFTEEGAIVGEISPLPSLPGHTAEDVKNAVGVLIGGLEWNDNTVRVSETLQRFAWRSSNENGRPPLTPKQKREMAGTIRSEV
notes: also called PR8 ED; PR8 NS1 ED
For B1, the “stoichiometry N” value was 2.

B2: Alb/76 NS1 effector domain (ED), residues 73-230 (domain or fragment)
chain: TDENLKIAIASSPAPRYITDMSIEEISREWYMLMPRQKITGGLMVKMDQAIMDKRITLKANFSVLFDQLETLVSLRAFTDDGAIVAEISPIPSMPGHSTEDVKNAIGILIGGLEWNDNSIRASENIQRFAWGIRDENGGPPLPPKQKRYMARRVESEV
notes: also called Alb/76 ED; Alb/76 NS1 ED
B2 was tested, and the “stoichiometry N” value was 2.
